Among the data in patent publication US20220389118A1 (Chugai, published 2022) are Kd values, retold here.

The target of experiment [1] is T1, human FcγRIIa type R (allotype R131) extracellular domain with C-terminal His tag (human, UniProt P12318 34-217).
T1 construct: extracellular domain; also called FcγRIIaR; FcγRIIa R type; not shown: His tag at the C terminus
T1 sequence (looked up): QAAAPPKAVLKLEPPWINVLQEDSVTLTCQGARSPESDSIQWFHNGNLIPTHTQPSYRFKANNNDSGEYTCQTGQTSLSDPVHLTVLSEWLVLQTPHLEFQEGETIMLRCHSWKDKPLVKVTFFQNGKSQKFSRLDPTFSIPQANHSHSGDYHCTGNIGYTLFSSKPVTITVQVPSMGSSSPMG
Nature of the experiment: SPR (Biacore), antibody captured, FcγR analyte. On the technique in general: Surface plasmon resonance follows binding to a sensor surface in real time, without labels.

The target of experiment [2] is T2, human FcγRIIa type H (allotype H131) extracellular domain with C-terminal His tag (human, UniProt P12318 34-217).
T2 construct: extracellular domain; also called FcγRIIaH; FcγRIIa H type; not shown: His tag at the C terminus
T2 sequence (looked up): T1 sequence (looked up) with R134H
In words: SPR (Biacore), antibody captured, FcγR analyte.

For experiment [3], the target named is T3, human FcγRIIIa type V (allotype V158) extracellular domain with C-terminal His tag (human, UniProt P08637 17-208).
T3 construct: extracellular domain; also called FcγRIIIaV; FcγRIIIa V type; not shown: His tag at the C terminus
Nature of the experiment: SPR (Biacore), antibody captured, FcγR analyte.

Experiment [4] addresses T4, human FcγRIa extracellular domain with C-terminal His tag (human, UniProt P12314 16-292).
T4 construct: not shown: His tag at the C terminus
Nature of the experiment: SPR (Biacore), antibody captured, FcγR analyte.
T4 sequence (P12314 16-292): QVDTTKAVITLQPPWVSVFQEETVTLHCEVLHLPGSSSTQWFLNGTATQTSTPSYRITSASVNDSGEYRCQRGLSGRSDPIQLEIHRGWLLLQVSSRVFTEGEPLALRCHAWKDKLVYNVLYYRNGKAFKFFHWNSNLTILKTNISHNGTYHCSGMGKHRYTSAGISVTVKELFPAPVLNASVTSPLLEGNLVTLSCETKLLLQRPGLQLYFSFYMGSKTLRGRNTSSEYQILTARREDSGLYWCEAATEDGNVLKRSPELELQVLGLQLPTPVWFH

For experiment [5], the target named is T5, human FcγRIIb extracellular domain with C-terminal His tag (human, UniProt P31994 43-217).
T5 construct: extracellular domain; not shown: His tag at the C terminus
T5 sequence (looked up): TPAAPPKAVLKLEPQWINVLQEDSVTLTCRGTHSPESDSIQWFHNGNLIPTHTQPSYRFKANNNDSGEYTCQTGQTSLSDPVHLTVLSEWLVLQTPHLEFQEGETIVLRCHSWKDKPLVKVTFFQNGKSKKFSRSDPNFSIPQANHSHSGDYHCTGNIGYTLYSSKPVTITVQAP
Nature of the experiment: SPR (Biacore), antibody captured, FcγR analyte.

In experiment [6] the target is T6, human FcRn (human, UniProt P55899 24-297; P61769 21-119).
T6 construct: the construct is not described
In words: FcRn binding affinity at pH 6.0; method not stated.

For experiment [7], the target named is T7, human FcγRIIa type R (R131) extracellular domain with C-terminal His tag (human, UniProt P12318 34-217).
T7 construct: extracellular domain; also called FcγRIIaR; not shown: His tag at the C terminus
T7 sequence (looked up): T1 sequence (looked up)
In words: SPR (Biacore), antibody captured, FcγR analyte.

The target of experiment [8] is T8, human FcγRIIb extracellular domain with C-terminal His tag (human, UniProt P31994 43-217).
T8 construct: extracellular domain; not shown: His tag at the C terminus
T8 sequence (looked up): T5 sequence (looked up)
In words: SPR (Biacore), antibody captured, FcγR analyte. The source holds these as a separate data set.

Experiment [9] has as its target T9, human FcγRIa extracellular domain with C-terminal His tag (human, UniProt P12314 16-292).
T9 construct: not shown: His tag at the C terminus
In words: SPR (Biacore), antibody captured, FcγR analyte. This is another data set of the same source.
T9 sequence (P12314 16-292): as the sequence (P12314 16-292) above

The target in experiment [10] is T6, human FcRn. In words: binding to FcRn at pH 6.0; method not stated.

Substitutions are numbered along the chain they refer to. Where two headings read alike, the source gives them in different places.

T3 sequence (P08637 17-208 F176V): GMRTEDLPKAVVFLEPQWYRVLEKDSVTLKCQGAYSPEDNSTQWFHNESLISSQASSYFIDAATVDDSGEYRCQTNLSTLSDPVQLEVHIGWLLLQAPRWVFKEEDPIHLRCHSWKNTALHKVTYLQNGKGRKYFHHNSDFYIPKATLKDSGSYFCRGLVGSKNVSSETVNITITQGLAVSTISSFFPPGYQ
T6 sequence (P55899 24-297 limits assumed, chain 1 of 2): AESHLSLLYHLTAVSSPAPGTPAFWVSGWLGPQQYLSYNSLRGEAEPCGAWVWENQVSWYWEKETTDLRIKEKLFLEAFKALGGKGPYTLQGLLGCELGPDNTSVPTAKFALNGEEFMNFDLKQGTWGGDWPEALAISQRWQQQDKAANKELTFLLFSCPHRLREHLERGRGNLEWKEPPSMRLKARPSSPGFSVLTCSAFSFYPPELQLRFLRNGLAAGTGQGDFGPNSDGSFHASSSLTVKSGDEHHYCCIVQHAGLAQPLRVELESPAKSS
T6 sequence (P61769 21-119 limits assumed, chain 2 of 2): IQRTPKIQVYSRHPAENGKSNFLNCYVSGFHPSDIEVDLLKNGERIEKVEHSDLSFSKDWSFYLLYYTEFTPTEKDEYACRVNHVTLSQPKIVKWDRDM

B1: IL6R-BP184/IL6R-L (antibody, human IgG1, kappa)
heavy: QVQLQESGPGLVKPSETLSLTCAVSGHSISHDHAWSWVRQPPGEGLEWIGFISYSGITNYNPSLQGRVTISRDNSKNTLYLQMNSLRAEDTAVYYCARSLARTTAMDYWGEGTLVTVSSASTKGPSVFPLAPSSKSTSGGTAALGCLVKDYFPEPVTVSWNSGALTSGVHTFPAVLQSSGLYSLSSVVTVPSSSLGTQTYICNVNHKPSNTKVDKKVEPKSCDKTHTCPPCPAPDLLGGDSVFLFPPKPKDTLMISRTPEVTCVVVDVSHEDGEVKFNWYVDGVEVHNAKTKPREEQYNSTYRVVSVLTVLHQDWLNGKEYKCKVSNKALPKPIEKTISKAKGQPREPQVYTLPPSRDELTKNQVSLTCLVKGFYPSDIAVEWESNGQPENNYKTTPPVLDSDGSFFLYSKLTVDKSRWQQGNVFSCSVMHEALHNHYTQESLSLSP
light: not shown
notes: copies: 2 + 2
Turning to B1, the equilibrium dissociation constant (Kd) (as a rule, the equilibrium constant for the complex coming apart) was found to be 2300 nM in experiment [1], 30000 nM in experiment [2] and 66000 nM in experiment [3].

B2: IL6R-BP203/IL6R-L (antibody, human IgG1, kappa)
heavy: B1 heavy with D235E, G239D, K332R
light: not shown
notes: copies: 2 + 2
With B2, the figures for the Kd in experiment [4], in experiment [1] and in [3] were 180 nM, 990 nM and 72000 nM, respectively.

B3: IL6R-BP195/IL6R-L (antibody, human IgG1, kappa)
heavy: B1 heavy with L236Y, G239D, H270D, Y298D, K328A
light: not shown
notes: copies: 2 + 2
For the molecule B3, the equilibrium dissociation constant (Kd) in [1] amounted to 910 nM; in [2], 10000 nM; in experiment [3] it was 31000 nM; in experiment [5], 50 nM.

B4: IL6R-BP202/IL6R-L (antibody, human IgG1, kappa)
heavy: B1 heavy with D235E, G239D, K328A, K332R
light: not shown
notes: copies: 2 + 2
Consider B4, for which the Kd in [4] was determined as 95 nM; in [2] it was 9200 nM.

B5: IL6R-BP189/IL6R-L (antibody, human IgG1, kappa)
heavy: B1 heavy with D235E, G239D, H270D, K328A
light: not shown
notes: copies: 2 + 2
The molecule B5 returned a Kd in experiment [4] of 42 nM.

B6: Fv4-YTE (antibody, human IgG1, kappa)
heavy: B1 heavy with D235E, D240P, M254Y, S256T, T258E, G273P, K332A, E441K
light: DIQMTQSPSSLSASVGDSVTITCQASTDISSHLNWYQQKPGKAPELLIYYGSHLLSGVPSRFSGSGSGTDFTFTISSLEAEDAATYYCGQGNRLPYTFGQGTKVEIERTVAAPSVFIFPPSDEQLKSGTASVVCLLNNFYPREAKVQWKVDNALQSGNSQESVTEQDSKDSTYSLSSTLTLSKADYEKHKVYACEVTHQGLSSPVTKSFNRGEC
notes: copies: 2 + 2
B6 yielded a Kd in the experiment with human FcRn [6] of 210 nM.

B7: IL6R-BP545/IL6R-L (antibody, human IgG1, kappa)
heavy: B1 heavy with G239D, H270D, Y298D, K332R, D358E
light: not shown
notes: D356E introduced into IL6R-BP230; copies: 2 + 2
B7: the Kd came to 570 nM in experiment [7] and 17 nM in [8].

B8: IL6R-BP201/IL6R-L (antibody, human IgG1, kappa)
heavy: B1 heavy with G239D, K332R
light: not shown
notes: copies: 2 + 2
With B8, the dissociation constant Kd in experiment [1] was 840 nM; in experiment [5] it was 40 nM.

B9: IL6R-BP230/IL6R-L (antibody, human IgG1, kappa)
heavy: B1 heavy with G239D, H270D, Y298D, K332R
light: not shown
notes: copies: 2 + 2
In the case of B9, the Kd was found to be 10 nM in experiment [9] and 18 nM in experiment [8].

B10: Fv4-N434H (antibody, human IgG1, kappa)
heavy: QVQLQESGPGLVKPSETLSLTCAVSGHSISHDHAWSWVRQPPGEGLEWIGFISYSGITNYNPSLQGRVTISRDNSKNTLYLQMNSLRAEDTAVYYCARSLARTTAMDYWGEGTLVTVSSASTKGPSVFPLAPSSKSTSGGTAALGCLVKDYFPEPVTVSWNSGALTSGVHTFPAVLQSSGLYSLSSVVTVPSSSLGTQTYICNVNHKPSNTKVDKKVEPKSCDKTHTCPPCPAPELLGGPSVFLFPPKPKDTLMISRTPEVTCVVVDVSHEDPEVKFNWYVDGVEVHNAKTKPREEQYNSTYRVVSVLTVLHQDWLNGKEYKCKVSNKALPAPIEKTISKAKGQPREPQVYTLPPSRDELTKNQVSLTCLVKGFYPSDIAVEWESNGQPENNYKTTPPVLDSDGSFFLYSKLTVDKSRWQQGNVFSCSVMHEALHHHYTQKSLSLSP
light: B6 light
notes: copies: 2 + 2
As to B10, in the experiment with human FcRn [6], the Kd amounted to 430 nM.

B11: IL6R-BP209/IL6R-L (antibody, human IgG1, kappa)
heavy: B1 heavy with D235E, G239D, H270D, K328A, K332R
light: not shown
notes: copies: 2 + 2
On to B11, for which the Kd in experiment [4] came to 39 nM; in experiment [2] it was 10000 nM; in experiment [3] it was 41000 nM; in experiment [5], 51 nM.

B12: IL6R-BP208/IL6R-L (antibody, human IgG1, kappa)
heavy: B1 heavy with G239D, H270D, K332R
light: not shown
notes: copies: 2 + 2
Take B12: the Kd is 850 nM in experiment [1], 8300 nM in [2] and 53000 nM in [3].

B13: IL6R-BP200/IL6R-L (antibody, human IgG1, kappa)
heavy: B1 heavy with L236Y, G239D, K328D, K332R
light: not shown
notes: copies: 2 + 2
In turn, B13 came in with a Kd in experiment [5] of 34 nM.

B14: IL6R-BP187/IL6R-L (antibody, human IgG1, kappa)
heavy: B1 heavy with D235E, L236Y, K328A
light: not shown
notes: copies: 2 + 2
In the case of B14, the Kd in [4] was found to be 25 nM; in [1], 2800 nM; in experiment [3] it was 56000 nM.

B15: Fv4-LS (antibody, human IgG1, kappa)
heavy: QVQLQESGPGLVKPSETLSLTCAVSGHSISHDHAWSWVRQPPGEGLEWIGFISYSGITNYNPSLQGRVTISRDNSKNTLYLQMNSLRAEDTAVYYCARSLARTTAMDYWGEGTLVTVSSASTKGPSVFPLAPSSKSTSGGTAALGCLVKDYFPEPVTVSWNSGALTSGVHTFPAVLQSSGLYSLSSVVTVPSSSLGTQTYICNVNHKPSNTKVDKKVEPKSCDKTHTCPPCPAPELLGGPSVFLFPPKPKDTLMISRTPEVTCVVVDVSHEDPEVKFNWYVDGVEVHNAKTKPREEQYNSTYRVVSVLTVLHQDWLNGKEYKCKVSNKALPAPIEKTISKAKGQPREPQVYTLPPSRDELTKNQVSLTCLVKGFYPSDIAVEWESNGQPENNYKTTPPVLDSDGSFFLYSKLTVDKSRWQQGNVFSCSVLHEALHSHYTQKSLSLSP
light: B6 light
notes: also called F22 (LS); F22; copies: 2 + 2
B15: the results for the Kd with human FcRn [6] and in the experiment with human FcRn [10] were 160 nM and 71 nM, respectively.

B16: Fv4-F1166 (antibody, IgG1)
heavy: B1 heavy with D235E, D240P, M254Y, S256T, T258E, G273P, K332A, Q440R, E441K, S442E
light: B6 light
notes: copies: 2 + 2
For the molecule B16, binding in the experiment with human FcRn [6] was put at a Kd of 210 nM.

B17: IL6R-BP191/IL6R-L (antibody, human IgG1, kappa)
heavy: B1 heavy with H270D, K328A
light: not shown
notes: copies: 2 + 2
With B17, the dissociation constant (Kd) came out at 4 nM in experiment [4] and 3000 nM in [1].

B18: IL6R-BP185/IL6R-L (antibody, human IgG1, kappa)
heavy: B1 heavy with L236Y, G239D, K328A
light: not shown
notes: copies: 2 + 2
Consider B18, for which the Kd is 880 nM in [1], 36000 nM in [3] and 69 nM in experiment [5].

B19: Fv4-F1173 (antibody, human IgG1, kappa)
heavy: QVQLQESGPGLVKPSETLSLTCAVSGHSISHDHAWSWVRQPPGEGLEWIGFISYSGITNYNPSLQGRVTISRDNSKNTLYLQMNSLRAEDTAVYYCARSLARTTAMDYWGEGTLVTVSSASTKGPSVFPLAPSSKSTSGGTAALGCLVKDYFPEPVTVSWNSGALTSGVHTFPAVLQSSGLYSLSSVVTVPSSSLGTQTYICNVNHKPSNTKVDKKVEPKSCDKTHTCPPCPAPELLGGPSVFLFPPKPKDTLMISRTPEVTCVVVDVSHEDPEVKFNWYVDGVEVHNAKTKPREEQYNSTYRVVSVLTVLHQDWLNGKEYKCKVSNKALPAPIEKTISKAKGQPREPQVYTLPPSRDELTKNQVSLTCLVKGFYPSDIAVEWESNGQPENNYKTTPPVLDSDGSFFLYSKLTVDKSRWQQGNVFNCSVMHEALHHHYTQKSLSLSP
light: B6 light
notes: copies: 2 + 2
Turning to B19, in the experiment with human FcRn [6], the dissociation constant Kd turned out to be 530 nM.

B20: Fv4-F1171 (antibody, human IgG1, kappa)
heavy: B1 heavy with D235E, D240P, G273P, K332A, S426N, M430L, N436S, E441K
light: B6 light
notes: copies: 2 + 2
In the experiment with human FcRn [6], B20 came in with a Kd of 240 nM.

B21: Fv4-F1167 (antibody, human IgG1, kappa)
heavy: B1 heavy with D235E, D240P, M254Y, S256T, T258E, G273P, K332A, S426N, E441K
light: B6 light
notes: copies: 2 + 2
Molecule B21 returned an equilibrium dissociation constant (Kd) with human FcRn [6] of 250 nM.

B22: IL6R-BP192/IL6R-L (antibody, human IgG1, kappa)
heavy: B1 heavy with H270D, Y298D
light: not shown
notes: copies: 2 + 2
On to B22, for which the results for the Kd in experiment [4] and in experiment [1] were 6.6 nM and 2600 nM, respectively.

B23: Fv4-F1172 (antibody, IgG1)
heavy: B1 heavy with D235E, D240P, G273P, K332A, N436H, Q440R, E441K, S442E
light: B6 light
notes: copies: 2 + 2
Molecule B23 registered an equilibrium dissociation constant (Kd) with human FcRn [6] of 400 nM.

B24: IL6R-BP547/IL6R-L (antibody, human IgG1, kappa)
heavy: B1 heavy with G239D, H270D, Y298D, K332R, K411R
light: not shown
notes: K409R introduced into IL6R-BP230; copies: 2 + 2
Turning to B24, the equilibrium dissociation constant (Kd) was 12 nM in experiment [9] and 19 nM in experiment [8].

B25: IL6R-BP206/IL6R-L (antibody, human IgG1, kappa)
heavy: B1 heavy with K332R
light: not shown
notes: copies: 2 + 2
Regarding B25, the Kd in experiment [3] was determined as 69000 nM; in experiment [5], 200 nM.
